Here are results for one molecule from patent publication US20230106247A1 (L AND L BIO CO LTD NINGBO CHINA, published 2023).

One assay addresses T1, Cyno Sirpα L937 (cynomolgus).
T1 construct: also called RB3-5; Cyno Sirpα polymorphism 4 (L937)
T1 chain: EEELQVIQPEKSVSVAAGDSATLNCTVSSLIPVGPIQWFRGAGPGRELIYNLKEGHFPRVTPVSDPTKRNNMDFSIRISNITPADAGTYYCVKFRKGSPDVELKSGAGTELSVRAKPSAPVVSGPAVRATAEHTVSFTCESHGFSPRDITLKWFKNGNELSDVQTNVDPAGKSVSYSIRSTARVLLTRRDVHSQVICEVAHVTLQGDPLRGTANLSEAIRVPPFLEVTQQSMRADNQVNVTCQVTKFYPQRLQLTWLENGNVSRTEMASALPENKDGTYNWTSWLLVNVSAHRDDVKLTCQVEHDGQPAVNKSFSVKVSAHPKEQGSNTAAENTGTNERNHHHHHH
Briefly: ELISA. The procedure:
(§1) Different antigens (recombinant proteins) such as the human Sirpα-V1-hFc, Sirpα-V1-his, Sirpα-V2-his, Sirpβ-his, Sirpγ-his, monkey Sirpα-his (cynoSirpα-his) or NOD-mSirpα-his described in Example 1 were diluted with a PBS buffer at pH7.4 to concentrations of 1 μg/mL, 2 μg/mL or 5 μg/mL, added into a 96-well ELISA plate (Corning, CLS3590-100EA) at a volume of 50 μL/well, and placed in an incubator at 37° C. for 2 hours. After the liquid was discarded, the wells were added with a blocking solution of 5% skimmed milk (skimmed milk powder available from Bright Dairy) diluted with PBS at 230 μL/well, and incubated in an incubator at 37° C. for 3 hours, or placed overnight at 4° C. (for 16-18 hours) for blocking. The blocking solution was discarded, and the plate was washed with a PBST buffer (pH7.4 PBS containing 0.05% Tween-20) for 5 times, then added with 50 μL/well of the supernatant (containing a detection antibody) or 10 μg/mL of the starting 5-fold gradient dilution of the antibody to be tested, and incubated at 37° C. for 1 hour. […] The plated was washed with PBST for 5 times, then added with 50 μL/well of TMB chromogenic substrate (KPL, Cat #: 52-00-03), incubated at room temperature for 10-15 min, added with 50 μL/well of 1 M H₂SO₄ to stop the reaction, and read by a […] Go microplate reader (ThermoFisher, Cat #: 51119200) for the absorbance value at 450 nm, and then a clone with high binding activity was selected or a EC₅₀ value was calculated according to the OD value.
For orientation: ELISA stands for enzyme-linked immunosorbent assay.

In the next assay the target is T2, Cyno Sirpα L933 (cynomolgus).
T2 construct: extracellular domain; also called Cyno Sirpα polymorphism 2 (L933)
In words: ELISA. The procedure: as §1

The target in another assay is T3, Cyno Sirpα L932 (cynomolgus).
T3 chain: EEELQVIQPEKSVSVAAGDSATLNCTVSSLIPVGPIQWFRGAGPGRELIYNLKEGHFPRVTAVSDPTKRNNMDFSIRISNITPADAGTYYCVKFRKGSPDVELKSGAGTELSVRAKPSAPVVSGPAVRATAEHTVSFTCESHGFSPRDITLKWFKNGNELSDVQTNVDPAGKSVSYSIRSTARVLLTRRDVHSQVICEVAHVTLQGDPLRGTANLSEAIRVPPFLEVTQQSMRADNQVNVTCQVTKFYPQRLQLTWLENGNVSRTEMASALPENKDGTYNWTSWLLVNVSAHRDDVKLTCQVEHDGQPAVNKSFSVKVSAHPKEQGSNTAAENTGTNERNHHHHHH
Briefly: ELISA. The procedure: as §1

Assay [1] has as its target human Sirpα-V2-his (human). Briefly: ELISA. The procedure:
as §1

Another assay addresses T4, human Sirpα-V1-hFc (human, UniProt P78324 31-373).
T4 construct: range 31-373; also called hSirpα (dimer); hSirpα-V1-hFc (dimer); not shown: human IgG1 Fc region at the C-terminus
Briefly: blocking ELISA, competitor CD47-his. The procedure:
The recombinant proteins such as human Sirpα-V1-hFc/Sirpα-V1-his were diluted to concentrations of 5 μg/mL or 2 μg/mL respectively with a PBS buffer at pH 7.4, and then added into a 96-well ELISA plate (Corning, CLS3590-100EA) at a volume of 50 μL/well, and placed in an incubator at 37° C. for 2 hours. After the liquid was discarded, the wells were added with a blocking solution of 5% skimmed milk (skimmed milk powder available from Bright Dairy) diluted with PBS at 230 μL/well, and incubated in an incubator at 37° C. for 3 hours, or placed overnight at 4° C. (for 16-18 hours) for blocking. […] The plate was washed for 5 times, added with 50 μL/well of streptavidin-HRP (GenScript, M00091) or anti-his-HRP secondary antibody (GenScript, A00612) diluted at 1:1000, incubated at 37° C. for 1 hour, and then washed with PBST for 5 times. Each well was added with 50 μL of TMB (Surmodic, Cat #: TTMB-1000-01) for color development, and added with 50 μL/well of 1 M H₂SO₄ to stop the reaction. The readings on a microplate reader (MultiskanGO Thermo, Model 51119200) were subjected to data analysis by GraphPad prism 5.

For assay [2], the target named is human Sirpα-V2-his (human). Briefly: blocking ELISA, competitor CD47-his. The procedure:
Specifically, the recombinant protein of human Sirpα-V2-his was diluted to a concentration of 2 μg/mL with a PBS buffer at pH7.4, then added into a 96-well ELISA plate (Corning, CLS3590-100EA) at a volume of 50 μL/well, and placed in an incubator at 37° C. for 2 hours. After the liquid was discarded, the wells were added with a blocking solution of 5% skimmed milk (skimmed milk powder available from Bright Dairy) diluted with PBS at 230 μL/well, and incubated in an incubator at 37° C. for 3 hours, or placed overnight at 4° C. (for 16-18 hours) for blocking. […] The plate was washed for 5 times, added with 50 μL/well of a streptavidin-HRP secondary antibody (GenScript, M00091) diluted at 1:1000, incubated at 37° C. for 1 hour, and then washed with PBST for 5 times. Each well was added with 50 μL TMB (Surmodic, Cat #TTMB-1000-01) for color development, and added with 50 μL/well of 1 M H₂SO₄ to stop the reaction. The readings on a microplate reader (MultiskanGO Thermo, Model: 51119200) were subjected to data analysis by GraphPad prism 5.

Sequence of human Sirpα-V2-his (human) (chain, as listed by the source): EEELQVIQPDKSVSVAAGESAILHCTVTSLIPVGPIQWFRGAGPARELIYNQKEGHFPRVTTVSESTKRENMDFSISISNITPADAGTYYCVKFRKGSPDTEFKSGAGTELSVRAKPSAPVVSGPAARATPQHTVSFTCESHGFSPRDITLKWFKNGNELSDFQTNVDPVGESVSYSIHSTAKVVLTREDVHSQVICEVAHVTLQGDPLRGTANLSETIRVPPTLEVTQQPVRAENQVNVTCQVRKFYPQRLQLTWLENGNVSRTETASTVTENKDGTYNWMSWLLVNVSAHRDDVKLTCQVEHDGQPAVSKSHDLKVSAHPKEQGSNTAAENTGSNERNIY

B1: humanized antibody mab14-h16 (antibody, human IgG4 S228P, kappa, V domains shown)
VH: QVQLVQSGAEVKKPGASVKVSCKASGYNFNIYWINWVRQAPGQGLEWIGNIYPSSISTNYNEKFKTRATLTVDKSTSTVYMELSSLRSEDTAVYYCARSEGTYYGGRYEGDWFGYWGQGTLVTVSS
VL: DIQMTQSPSSLSASVGDRVTITCRASQDIRNYLNWYQQKPGKAPKLLIYFTSTLHSGVPSRFSGSGSGTDFTLTISSLQPEDFATYYCQQGNTLPWTFGGGTKVEIKR
notes: hIgG4, κ
As usually defined, the EC50 is the concentration giving half of the maximal effect. A high value points to lower potency in that assay. What is called IC50 is the concentration needed to halve the response being measured. Read a low IC50 as greater potency in that assay. Take B1: the half-maximal effective concentration (EC50) with Cyno Sirpα L937 came to 0.121 nM; in the assay with Cyno Sirpα L933 it was 0.159 nM; with Cyno Sirpα L932 it was 0.181 nM; with human Sirpα-V2-his [1], 0.094 nM. The half-maximal inhibitory concentration (IC50) with human Sirpα-V1-hFc worked out at 5.92 nM; in the assay with human Sirpα-V2-his [2], 2.39 nM.
